In US20150344570A1 (published 2015):
One block for each binder: values may come before it.

Target: T1, FcγRIIa R (FcγRIIa, allotype with Arg at position 131), extracellular domain with C-terminal His tag (human, UniProt P12318 34-217)
T1 construct: extracellular domain; also called FcγRIIa R type; 2aR
T1 sequence (looked up): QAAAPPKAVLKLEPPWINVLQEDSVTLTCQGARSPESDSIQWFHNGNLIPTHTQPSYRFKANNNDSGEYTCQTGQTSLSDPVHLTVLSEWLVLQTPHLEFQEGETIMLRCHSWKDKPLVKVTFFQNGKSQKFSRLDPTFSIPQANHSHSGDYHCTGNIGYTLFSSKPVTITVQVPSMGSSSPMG
Assay: SPR (Biacore), antibody captured on antigen peptide chip, FcγR as analyte; relative binding
Method: Analysis of interaction between objective antibody and the FcγR was carried out using Biacore T100 (GE Healthcare). HBS-EP+ (GE Healthcare) was used as the running buffer, and the measurement temperature was set to 25° C. Chips produced by immobilizing the antigen peptide by the amine coupling method to a Series S Sencor Chip CM5 (GE Healthcare), or alternatively, chips produced by allowing preliminarily biotinylated antigen peptides to interact with and immobilize onto a Series S Sensor Chip SA (certified) (GE Healthcare) were used. Antibodies of interest were captured onto an antigen peptide-immobilized chip, and allowed to interact to each FcγR diluted with running buffer. To regenerate and repeatedly use the chip, the antibodies captured on the chip were washed off by reacting 10 mM glycine-HCl, pH 1.5.

B1: GpH7-B3 variant Y296_10E/GpL16-k0 (antibody, human IgG1, kappa)
heavy: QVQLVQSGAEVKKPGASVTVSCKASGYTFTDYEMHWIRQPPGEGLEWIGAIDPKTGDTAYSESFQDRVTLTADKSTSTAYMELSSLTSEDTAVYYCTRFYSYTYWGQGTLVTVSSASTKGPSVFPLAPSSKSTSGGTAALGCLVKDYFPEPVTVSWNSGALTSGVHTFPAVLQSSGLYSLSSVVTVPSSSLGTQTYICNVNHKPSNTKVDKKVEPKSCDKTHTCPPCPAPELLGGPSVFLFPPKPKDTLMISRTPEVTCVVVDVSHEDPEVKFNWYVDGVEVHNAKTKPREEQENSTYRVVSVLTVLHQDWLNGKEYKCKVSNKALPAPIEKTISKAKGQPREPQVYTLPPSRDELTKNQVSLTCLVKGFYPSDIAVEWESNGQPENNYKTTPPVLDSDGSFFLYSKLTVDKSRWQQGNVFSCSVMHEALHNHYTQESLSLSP
light: DIVMTQSPLSLPVTPGEPASISCQASESLVHSNRNTYLHWYLQKPGQSPQLLIYKVSNRFSGVPDRFSGSGSGTDFTLKISRVEAEDVGVYYCSQNTHVPPTFGQGTKVEIERTVAAPSVFIFPPSDEQLKSGTASVVCLLNNFYPREAKVQWKVDNALQSGNSQESVTEQDSKDSTYSLSSTLTLSKADYEKHKVYACEVTHQGLSSPVTKSFNRGEC
notes: also called Ho Ab
Ho/Con_2aR: 90.2 % of GpH7-B3/GpL16-k0 (=100)

B2: GpH7-A5/GpH7-B3 variant S337_02A/GpL16-k0 (antibody, human IgG1, kappa)
heavy 1: not shown
heavy 2: not shown
light: DIVMTQSPLSLPVTPGEPASISCQASESLVHSNRNTYLHWYLQKPGQSPQLLIYKVSNRFSGVPDRFSGSGSGTDFTLKISRVEAEDVGVYYCSQNTHVPPTFGQGTKVEIERTVAAPSVFIFPPSDEQLKSGTASVVCLLNNFYPREAKVQWKVDNALQSGNSQESVTEQDSKDSTYSLSSTLTLSKADYEKHKVYACEVTHQGLSSPVTKSFNRGEC
notes: also called He Ab
He/Con_2aR: 105 % of GpH7-A5/GpH7-B3/GpL16-k0 (=100)

B3: GpH7-B3 variant Y296_13S/GpL16-k0 (antibody, human IgG1, kappa)
heavy: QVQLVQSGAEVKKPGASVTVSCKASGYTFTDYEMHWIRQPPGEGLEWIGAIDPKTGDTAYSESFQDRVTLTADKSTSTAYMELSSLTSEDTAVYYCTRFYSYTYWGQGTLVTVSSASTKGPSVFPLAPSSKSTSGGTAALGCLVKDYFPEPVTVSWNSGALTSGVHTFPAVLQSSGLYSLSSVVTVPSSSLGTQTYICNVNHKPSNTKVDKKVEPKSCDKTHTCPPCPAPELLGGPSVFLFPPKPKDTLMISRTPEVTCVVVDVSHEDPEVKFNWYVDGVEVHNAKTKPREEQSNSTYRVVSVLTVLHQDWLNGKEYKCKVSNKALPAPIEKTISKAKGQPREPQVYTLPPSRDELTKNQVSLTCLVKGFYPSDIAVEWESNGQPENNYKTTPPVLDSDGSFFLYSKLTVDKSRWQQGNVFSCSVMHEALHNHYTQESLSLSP
light: DIVMTQSPLSLPVTPGEPASISCQASESLVHSNRNTYLHWYLQKPGQSPQLLIYKVSNRFSGVPDRFSGSGSGTDFTLKISRVEAEDVGVYYCSQNTHVPPTFGQGTKVEIERTVAAPSVFIFPPSDEQLKSGTASVVCLLNNFYPREAKVQWKVDNALQSGNSQESVTEQDSKDSTYSLSSTLTLSKADYEKHKVYACEVTHQGLSSPVTKSFNRGEC
notes: also called Ho Ab
Ho/Con_2aR: 88.1 % of GpH7-B3/GpL16-k0 (=100)

B4: GpH7-B3 variant Y296_16H/GpL16-k0 (antibody, human IgG1, kappa)
heavy: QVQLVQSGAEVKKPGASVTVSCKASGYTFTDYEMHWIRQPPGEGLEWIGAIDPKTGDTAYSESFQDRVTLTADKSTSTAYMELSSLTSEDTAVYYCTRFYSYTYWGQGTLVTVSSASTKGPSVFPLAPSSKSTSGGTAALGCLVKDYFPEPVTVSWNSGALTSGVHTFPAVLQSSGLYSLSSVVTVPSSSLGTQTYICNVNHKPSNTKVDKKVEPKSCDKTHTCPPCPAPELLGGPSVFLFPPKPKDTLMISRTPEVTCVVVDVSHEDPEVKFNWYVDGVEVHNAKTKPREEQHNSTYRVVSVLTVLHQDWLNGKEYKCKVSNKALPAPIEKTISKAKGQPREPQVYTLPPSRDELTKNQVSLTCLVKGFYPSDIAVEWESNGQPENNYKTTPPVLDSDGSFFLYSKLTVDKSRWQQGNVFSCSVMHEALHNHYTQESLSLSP
light: DIVMTQSPLSLPVTPGEPASISCQASESLVHSNRNTYLHWYLQKPGQSPQLLIYKVSNRFSGVPDRFSGSGSGTDFTLKISRVEAEDVGVYYCSQNTHVPPTFGQGTKVEIERTVAAPSVFIFPPSDEQLKSGTASVVCLLNNFYPREAKVQWKVDNALQSGNSQESVTEQDSKDSTYSLSSTLTLSKADYEKHKVYACEVTHQGLSSPVTKSFNRGEC
notes: also called Ho Ab
Ho/Con_2aR: 89.5 % of GpH7-B3/GpL16-k0 (=100)

B8: GpH7-B3 variant Y296_14T/GpL16-k0 (antibody, human IgG1, kappa)
heavy: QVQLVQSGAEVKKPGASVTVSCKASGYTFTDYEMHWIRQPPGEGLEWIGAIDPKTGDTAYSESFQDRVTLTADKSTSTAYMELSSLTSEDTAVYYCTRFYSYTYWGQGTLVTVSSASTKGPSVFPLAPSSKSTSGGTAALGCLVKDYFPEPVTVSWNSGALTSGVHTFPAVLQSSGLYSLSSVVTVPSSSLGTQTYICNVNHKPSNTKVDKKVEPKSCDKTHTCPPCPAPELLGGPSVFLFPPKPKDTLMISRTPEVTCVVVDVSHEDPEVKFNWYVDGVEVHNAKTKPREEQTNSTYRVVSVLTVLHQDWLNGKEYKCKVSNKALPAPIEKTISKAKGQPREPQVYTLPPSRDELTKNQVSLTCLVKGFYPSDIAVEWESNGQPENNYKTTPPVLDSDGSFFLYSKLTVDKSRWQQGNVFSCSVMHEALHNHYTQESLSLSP
light: DIVMTQSPLSLPVTPGEPASISCQASESLVHSNRNTYLHWYLQKPGQSPQLLIYKVSNRFSGVPDRFSGSGSGTDFTLKISRVEAEDVGVYYCSQNTHVPPTFGQGTKVEIERTVAAPSVFIFPPSDEQLKSGTASVVCLLNNFYPREAKVQWKVDNALQSGNSQESVTEQDSKDSTYSLSSTLTLSKADYEKHKVYACEVTHQGLSSPVTKSFNRGEC
notes: also called Ho Ab
Ho/Con_2aR: 90.3 % of GpH7-B3/GpL16-k0 (=100)

The remaining lines, values ahead:

Ho/Con_2aR: 93.7 % of GpH7-B3/GpL16-k0 (=100)
B5: GpH7-B3 variant Y296_18N/GpL16-k0 (antibody, human IgG1, kappa)
heavy: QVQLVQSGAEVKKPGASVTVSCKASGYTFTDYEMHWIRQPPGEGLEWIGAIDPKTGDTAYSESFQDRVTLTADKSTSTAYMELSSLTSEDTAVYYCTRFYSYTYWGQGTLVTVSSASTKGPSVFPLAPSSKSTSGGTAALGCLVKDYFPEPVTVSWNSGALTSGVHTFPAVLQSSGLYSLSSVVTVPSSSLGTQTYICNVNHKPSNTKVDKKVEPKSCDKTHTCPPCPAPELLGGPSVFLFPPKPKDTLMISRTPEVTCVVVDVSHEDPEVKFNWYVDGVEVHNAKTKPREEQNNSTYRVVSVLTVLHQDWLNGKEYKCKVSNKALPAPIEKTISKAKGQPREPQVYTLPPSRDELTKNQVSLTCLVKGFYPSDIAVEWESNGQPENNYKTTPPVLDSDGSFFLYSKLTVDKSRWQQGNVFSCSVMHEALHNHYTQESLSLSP
light: DIVMTQSPLSLPVTPGEPASISCQASESLVHSNRNTYLHWYLQKPGQSPQLLIYKVSNRFSGVPDRFSGSGSGTDFTLKISRVEAEDVGVYYCSQNTHVPPTFGQGTKVEIERTVAAPSVFIFPPSDEQLKSGTASVVCLLNNFYPREAKVQWKVDNALQSGNSQESVTEQDSKDSTYSLSSTLTLSKADYEKHKVYACEVTHQGLSSPVTKSFNRGEC
notes: also called Ho Ab

Ho/Con_2aR: 88.9 % of GpH7-B3/GpL16-k0 (=100)
B6: GpH7-B3 variant Y296_19Q/GpL16-k0 (antibody, human IgG1, kappa)
heavy: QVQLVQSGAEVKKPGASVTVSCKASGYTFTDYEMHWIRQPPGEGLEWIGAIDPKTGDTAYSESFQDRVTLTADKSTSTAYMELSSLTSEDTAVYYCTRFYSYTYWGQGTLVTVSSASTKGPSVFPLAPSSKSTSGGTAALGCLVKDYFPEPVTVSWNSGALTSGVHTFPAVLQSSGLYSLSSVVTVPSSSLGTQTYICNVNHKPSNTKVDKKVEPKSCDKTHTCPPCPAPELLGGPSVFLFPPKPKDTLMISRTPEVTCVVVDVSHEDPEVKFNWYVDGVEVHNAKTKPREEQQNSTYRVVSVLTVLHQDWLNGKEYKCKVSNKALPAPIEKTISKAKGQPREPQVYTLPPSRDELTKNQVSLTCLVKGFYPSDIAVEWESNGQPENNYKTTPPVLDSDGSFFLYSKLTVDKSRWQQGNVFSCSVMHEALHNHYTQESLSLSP
light: DIVMTQSPLSLPVTPGEPASISCQASESLVHSNRNTYLHWYLQKPGQSPQLLIYKVSNRFSGVPDRFSGSGSGTDFTLKISRVEAEDVGVYYCSQNTHVPPTFGQGTKVEIERTVAAPSVFIFPPSDEQLKSGTASVVCLLNNFYPREAKVQWKVDNALQSGNSQESVTEQDSKDSTYSLSSTLTLSKADYEKHKVYACEVTHQGLSSPVTKSFNRGEC
notes: also called Ho Ab

Ho/Con_2aR: 87.6 % of GpH7-B3/GpL16-k0 (=100)
B7: GpH7-B3 variant Y300_18N/GpL16-k0 (antibody, human IgG1, kappa)
heavy: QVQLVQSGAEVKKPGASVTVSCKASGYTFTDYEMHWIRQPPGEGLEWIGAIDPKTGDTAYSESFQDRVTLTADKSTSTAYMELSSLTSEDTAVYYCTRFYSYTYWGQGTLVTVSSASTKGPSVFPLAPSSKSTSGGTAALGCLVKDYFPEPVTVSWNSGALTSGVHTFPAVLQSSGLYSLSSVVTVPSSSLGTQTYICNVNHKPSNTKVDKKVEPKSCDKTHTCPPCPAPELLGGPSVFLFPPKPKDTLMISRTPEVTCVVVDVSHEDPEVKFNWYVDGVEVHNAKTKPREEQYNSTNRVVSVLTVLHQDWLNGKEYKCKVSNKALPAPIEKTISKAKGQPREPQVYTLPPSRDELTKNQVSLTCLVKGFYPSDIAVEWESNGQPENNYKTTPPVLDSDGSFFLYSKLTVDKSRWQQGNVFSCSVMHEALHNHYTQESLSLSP
light: DIVMTQSPLSLPVTPGEPASISCQASESLVHSNRNTYLHWYLQKPGQSPQLLIYKVSNRFSGVPDRFSGSGSGTDFTLKISRVEAEDVGVYYCSQNTHVPPTFGQGTKVEIERTVAAPSVFIFPPSDEQLKSGTASVVCLLNNFYPREAKVQWKVDNALQSGNSQESVTEQDSKDSTYSLSSTLTLSKADYEKHKVYACEVTHQGLSSPVTKSFNRGEC
notes: also called Ho Ab

Ho/Con_2aR: 107 % of GpH7-B3/GpL16-k0 (=100)
B9: GpH7-B3 variant Y296_20W/GpL16-k0 (antibody, human IgG1, kappa)
heavy: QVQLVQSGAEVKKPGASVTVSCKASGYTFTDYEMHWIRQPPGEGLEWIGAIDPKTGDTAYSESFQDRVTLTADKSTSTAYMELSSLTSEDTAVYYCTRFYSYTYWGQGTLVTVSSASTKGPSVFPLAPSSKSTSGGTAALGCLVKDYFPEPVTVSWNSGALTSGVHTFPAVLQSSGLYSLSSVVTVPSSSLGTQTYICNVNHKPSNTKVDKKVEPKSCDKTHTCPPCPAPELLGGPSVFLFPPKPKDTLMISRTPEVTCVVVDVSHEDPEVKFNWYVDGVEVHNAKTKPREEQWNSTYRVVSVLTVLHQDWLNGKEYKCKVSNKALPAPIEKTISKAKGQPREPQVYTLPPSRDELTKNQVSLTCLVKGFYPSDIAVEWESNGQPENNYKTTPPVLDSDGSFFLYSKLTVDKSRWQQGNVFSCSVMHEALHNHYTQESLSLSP
light: DIVMTQSPLSLPVTPGEPASISCQASESLVHSNRNTYLHWYLQKPGQSPQLLIYKVSNRFSGVPDRFSGSGSGTDFTLKISRVEAEDVGVYYCSQNTHVPPTFGQGTKVEIERTVAAPSVFIFPPSDEQLKSGTASVVCLLNNFYPREAKVQWKVDNALQSGNSQESVTEQDSKDSTYSLSSTLTLSKADYEKHKVYACEVTHQGLSSPVTKSFNRGEC
notes: also called Ho Ab
